{
  "source": "paper PMC8386734",
  "key": {"[1]": {"molecular_target": "DS-Cav1, prefusion-stabilized form of the RSV fusion (F) glycoprotein (human respiratory syncytial virus | not stated)", "assay": "cryo-EM structure"}, "[2]": {"molecular_target": "DS-Cav1, prefusion-stabilized form of the RSV fusion (F) glycoprotein (human respiratory syncytial virus | not stated)", "assay": "crystal structure"}},
  "data": [
    {"substance": "DS-Cav1, prefusion-stabilized form of the RSV fusion (F) glycoprotein (natural protein)", "values": [
      {"measurement": "stoichiometry N", "setting": "[1]", "value": 3},
      {"measurement": "stoichiometry N", "setting": "[2]", "value": 3}
    ]}
  ]
}
